In US20210061908A1 (IOMX THERAPEUTICS, published 2021):

T1: extracellular domain (ECD) of human IGSF11 (VSIG3), HIS-tagged (human, UniProt Q5DX21 23-241, biotinylated in the ELISA of Example 4 (site not stated))
T1 construct: also called HIS-IGSF11; IGSF11-HIS; not shown: HIS6 tag
T1 sequence: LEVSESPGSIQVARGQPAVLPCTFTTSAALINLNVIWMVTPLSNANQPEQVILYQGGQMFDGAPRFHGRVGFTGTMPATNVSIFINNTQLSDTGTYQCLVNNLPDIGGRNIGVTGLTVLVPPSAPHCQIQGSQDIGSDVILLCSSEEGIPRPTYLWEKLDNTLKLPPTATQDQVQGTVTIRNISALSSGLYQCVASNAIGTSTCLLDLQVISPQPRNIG

T2: IGSF11 (VSIG3), construct used in SPR and BLI not stated (UniProt Q5DX21 23-241, limits assumed)
T2 sequence (looked up): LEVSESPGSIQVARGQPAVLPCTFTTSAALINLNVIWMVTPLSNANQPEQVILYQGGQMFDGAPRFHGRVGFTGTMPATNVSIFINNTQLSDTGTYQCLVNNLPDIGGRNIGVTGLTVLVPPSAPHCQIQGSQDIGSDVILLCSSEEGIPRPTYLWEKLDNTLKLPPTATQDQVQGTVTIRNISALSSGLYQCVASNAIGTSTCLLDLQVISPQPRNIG

B1: human IGSF11 (VSIG3) expressed on the surface of cells (receptor)
chain: LEVSESPGSIQVARGQPAVLPCTFTTSAALINLNVIWMVTPLSNANQPEQVILYQGGQMFDGAPRFHGRVGFTGTMPATNVSIFINNTQLSDTGTYQCLVNNLPDIGGRNIGVTGLTVLVPPSAPHCQIQGSQDIGSDVILLCSSEEGIPRPTYLWEKLDNTLKLPPTATQDQVQGTVTIRNISALSSGLYQCVASNAIGTSTCLLDLQVISPQPRNIGLIAGAIGTGAVIIIFCIALILGAFFYWRSKNKEEEEEEIPNEIREDDLPPKCSSAKAFHTEISSSDNNTLTSSNAYNSRYWSNNPKVHRNTESVSHFSDLGQSFSFHSGNANIPSIYANGTHLVPGQHKTLVVTANRGSSPQVMSRSNGSVSRKPRPPHTHSYTISHATLERIGAVPVMVPAQSRAGSLV
notes: one molecule for all cell lines; the cell line is named under assay; also called IGSF11-expressing cells; HEK-OE

Columns and labels:
[1] = target: T3, A-015 (scFv-Fc format, mouse IgG2A Fc); assay: FACS on CD14-gated monocytes from PBMC of healthy donor A, 30 min at 4 C, fluorescently labelled secondary antibody
T3 construct: scFv genetically fused to mouse IgG2A Fc, expressed in HEK293; also called scFv-Fc-format of antibody A-015; anti-IGSF11 scFv-Fc (mouse IgG2A)

[2] = target: B1; assay: FACS, IgG1 format, recombinant HEK cells expressing IGSF11 (HEK-OE)
[3] = target: B1; assay: FACS on M579-A2-luc cells treated with IGSF11 siRNA (KD: target knocked down, specificity control)
[4] = target: B1; assay: FACS on M579-A2-luc cells treated with scrambled control siRNA (SC)
[5] = target: B1; assay: FACS on DMS 273 cells treated with IGSF11 siRNA (KD: target knocked down, specificity control)
[6] = target: B1; assay: FACS on DMS 273 cells treated with scrambled control siRNA (SC)
[7] = target: T1, extracellular domain (ECD) of human …; assay: ELISA, coated IGSF11-HIS, IgG1 format; EC50 grade (* >1 nM, ** 0.05-1 nM, *** 0.02-0.05 nM, **** <0.02 nM)
[8] = target: T2, IGSF11 (VSIG3), construct used in SPR …; assay: BLI (Octet), IgG1 format; IGSF11 construct not stated
CL-11 (C) [9] = assay: FACS on CL-11 cells (do not express IGSF11; negative cell line) treated with IGSF11 siRNA (KD)
[10] = target: T2, IGSF11 (VSIG3), construct used in SPR …; assay: SPR (Biacore), IgG1 format; IGSF11 construct not stated
CL-11 (C) [11] = assay: FACS on CL-11 cells (do not express IGSF11; negative cell line) treated with scrambled control siRNA (SC)
[12] = target: T1, extracellular domain (ECD) of human …; assay: ELISA: IGSF11-HIS coated, IgG1 antibody titrated, anti-human antibody-HRP and TMB; X-axis nM and Y-axis absorbance per legend paragraph 30 [B]
[13] = target: T1, extracellular domain (ECD) of human …; assay: blocking ELISA (Example 5): IgG titrated and pre-incubated with 200 nM his-tagged IGSF11 ECD, complexes added to immobilised VSIR-Fc, bound IGSF11 detected with anti-hexahistidine-HRP; blocked ligand: VSIR-Fc [B]
[14] = target: B1; assay: FACS, IgG1 format, DMS 273 cells
[15] = target: T2, IGSF11 (VSIG3), construct used in SPR …; assay: SPR (Biacore), chain-swapped IgG1; IGSF11 construct not stated
[16] = target: T1, extracellular domain (ECD) of human …; assay: blocking ELISA (Example 5): IgG titrated and pre-incubated with 200 nM his-tagged IGSF11 ECD, complexes added to immobilised VSIR-Fc, bound IGSF11 detected with anti-hexahistidine-HRP; blocked ligand: VSIR-Fc
[17] = target: T1, extracellular domain (ECD) of human …; assay: ELISA: IGSF11-HIS coated, IgG1 antibody titrated, anti-human antibody-HRP and TMB; X-axis nM and Y-axis absorbance per legend paragraph 30

T3 sequence (VH, as listed by the source, chain 1 of 2): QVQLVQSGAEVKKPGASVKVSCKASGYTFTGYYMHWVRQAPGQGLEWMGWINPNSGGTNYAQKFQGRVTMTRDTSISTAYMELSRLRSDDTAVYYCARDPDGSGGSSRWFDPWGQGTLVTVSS
T3 sequence (VL, as listed by the source, chain 2 of 2): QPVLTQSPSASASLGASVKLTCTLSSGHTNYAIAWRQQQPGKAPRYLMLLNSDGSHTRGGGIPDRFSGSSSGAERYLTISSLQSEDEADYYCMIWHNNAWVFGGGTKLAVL

binding result [1] | EC50 [2] | percentage binding [3] | percentage binding [4] | percentage binding [5] | percentage binding [6] | EC50 [7] | Kd [8] | percentage binding (CL-11 (C) [9]) | Kd [10] | percentage binding (CL-11 (C) [11]) | EC50 (read off the curve) [12] | IC50 (read off the curve) [13] | EC50 [14] | Kd [15] | IC50 (read off the curve) [16] | EC50 (read off the curve) [17] | Binder
binds | – | – | – | – | – | – | – | – | – | – | – | – | – | – | – | – | B1
– | > 50 nM | 2.41% | 2.05% | 3.4% | 6.95% | < 0.02 nM | 10 to 20 nM | 4.86% | 250 to 500 nM | 2.87% | – | – | – | – | – | – | A-011 (human IgG1 format) (antibody, V domains shown, human IgG1 format) VH: QVQLVESGGGVVQPGRSLRLSCAASGFTFSSYAMHWVRQAPGKGLEWVAVISYDGSNKYYADSVKGRFTISRDNSKNTLYLQMNSLRAEDTAVYYCAEGGALNYYGMDVWGQGTTVTVSS VL: SSELTQDPGVSVALGQTVRITCQGDSLRHFYATWYQQKPGQAPILVIYGKNNRPSGIPDRFSGSSSEDTASLTITGAQAEDEADYYCQSRDPRNNHLIFGGGTKLIVL
– | 10 to 50 nM | 2.77% | 70.7% | 8.68% | 80.1% | – | – | 4.54% | – | 3% | ~0.01 nM | ~4 nM | > 50 nM | 100 to 250 nM | – | – | B-002 (chain-swapped, human IgG1 format) (antibody, V domains shown, VH of A-006 with VL of A-012; IgG1 format; also called B2; Chains-B-002) VH: EVQLVESGGGLIQPGGSLRLSCAASGFTVSSNYMSWVRQAPGKGLEWVSVIYSGGSTYYADSVKGRFTISRDNSKNTLYLQMNSLRAEDTAVYYCARGNPYYYGDLQVNFDYWGQGTLVTVSS VL: QAVVTQEPSLTVSPGGTVTLTCASSTGAVTSGYYPNWFQQKPGQAPRALIYSTSNKHSWTPARFSGSLLGGKAALTLSGVQPEDEAEYYCLLYYGGAWVFGGGTKLTVL
– | 10 to 50 nM | 2.59% | 75.3% | 5.72% | 81.1% | < 0.02 nM | 1 to 10 nM | 3.04% | 250 to 500 nM | 2.31% | – | – | > 50 nM | – | – | – | A-006 (human IgG1 format) (antibody, V domains shown, human IgG1 format) VH: EVQLVESGGGLIQPGGSLRLSCAASGFTVSSNYMSWVRQAPGKGLEWVSVIYSGGSTYYADSVKGRFTISRDNSKNTLYLQMNSLRAEDTAVYYCARGNPYYYGDLQVNFDYWGQGTLVTVSS VL: QAVVTQEPSLTVSPGGTVTLTCASSTGAVTSGYYPNWFQQKPGQAPRPLIYSTSNKHSWTPARFSGSLLGGKAALTLSGVQPDDEAEYYCLLYYGGDWVFGGGTKLTVL
– | 10 to 50 nM | – | – | – | – | – | – | – | – | – | – | – | – | 250 to 500 nM | ~2 nM | – | B-001 (chain-swapped, human IgG1 format) (antibody, V domains shown, VH of A-012 with VL of A-013; IgG1 format; also called B1; Chains-B-001) VH: EVQLLESGGGLIQPGGSLRLSCAVSGFTVSSNYMSWVRQAPGKGLEWVSVIYSGGSTYYADSVKGRFTISRDNSKNTLYLQMNSLRAEDTAVYYCARGNPYYYGDLQVNFDYWGQGTLVTVSS VL: QAVVTQEPSLTVSPGGTVTLTCASSTGAVTSAYYPNWFQQKPGQAPRALIYSTSNKHSWTPARFSGSLLGGKAALTLSGVQPEDEADYYCLLYYGGAWVFGGGTKLTVL
– | – | – | – | – | – | – | – | – | – | – | ~0.02 nM | ~5 nM | – | – | – | – | B-004 (chain-swapped, human IgG1 format) (antibody, V domains shown, VH of A-012 with VL of A-006; IgG1 format; also called B4; Chains-B-004) VH: EVQLLESGGGLIQPGGSLRLSCAVSGFTVSSNYMSWVRQAPGKGLEWVSVIYSGGSTYYADSVKGRFTISRDNSKNTLYLQMNSLRAEDTAVYYCARGNPYYYGDLQVNFDYWGQGTLVTVSS VL: QAVVTQEPSLTVSPGGTVTLTCASSTGAVTSGYYPNWFQQKPGQAPRPLIYSTSNKHSWTPARFSGSLLGGKAALTLSGVQPDDEAEYYCLLYYGGDWVFGGGTKLTVL
– | 10 to 50 nM | 2.35% | 65.4% | 4.77% | 75.8% | 0.02 to 0.05 nM | 1 to 10 nM | 3.93% | 250 to 500 nM | 5.11% | – | – | 10 to 50 nM | – | ~2 nM | ~0.008 nM | A-012 (human IgG1 format) (antibody, V domains shown, human IgG1 format) VH: EVQLLESGGGLIQPGGSLRLSCAVSGFTVSSNYMSWVRQAPGKGLEWVSVIYSGGSTYYADSVKGRFTISRDNSKNTLYLQMNSLRAEDTAVYYCARGNPYYYGDLQVNFDYWGQGTLVTVSS VL: QAVVTQEPSLTVSPGGTVTLTCASSTGAVTSGYYPNWFQQKPGQAPRALIYSTSNKHSWTPARFSGSLLGGKAALTLSGVQPEDEAEYYCLLYYGGAWVFGGGTKLTVL
